Measured values published in patent US20260151494A1 (ARO BIOTHERAPEUTICS, published 2026).

Assays:
[1] = target: T1, human CD71 extracellular domain (human, UniProt P02786 89-760); experiment: primary ELISA, signal ratio to HSA
T1 construct: also called hCD71; human CD71-ECD

[2] = target: T2, apical domain of cynomolgus CD71 (cynomolgus, UniProt A0A2K5X958 189-383); experiment: primary ELISA, signal ratio to HSA
T2 construct: domain: apical domain; also called Cyno apical domain

[3] = target: T1, human CD71 extracellular domain; experiment: primary ELISA; further: test concentration or dose not given here
[4] = target: T2, apical domain of cynomolgus CD71; experiment: primary ELISA; further: test concentration or dose not given here

T2 sequence (A0A2K5X958 entry or part of it): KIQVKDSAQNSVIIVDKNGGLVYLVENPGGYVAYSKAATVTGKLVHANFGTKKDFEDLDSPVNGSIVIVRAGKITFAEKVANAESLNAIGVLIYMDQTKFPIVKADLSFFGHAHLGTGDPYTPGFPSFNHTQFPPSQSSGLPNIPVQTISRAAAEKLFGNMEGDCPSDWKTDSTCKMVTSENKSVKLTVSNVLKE
T1 sequence (P02786 89-760): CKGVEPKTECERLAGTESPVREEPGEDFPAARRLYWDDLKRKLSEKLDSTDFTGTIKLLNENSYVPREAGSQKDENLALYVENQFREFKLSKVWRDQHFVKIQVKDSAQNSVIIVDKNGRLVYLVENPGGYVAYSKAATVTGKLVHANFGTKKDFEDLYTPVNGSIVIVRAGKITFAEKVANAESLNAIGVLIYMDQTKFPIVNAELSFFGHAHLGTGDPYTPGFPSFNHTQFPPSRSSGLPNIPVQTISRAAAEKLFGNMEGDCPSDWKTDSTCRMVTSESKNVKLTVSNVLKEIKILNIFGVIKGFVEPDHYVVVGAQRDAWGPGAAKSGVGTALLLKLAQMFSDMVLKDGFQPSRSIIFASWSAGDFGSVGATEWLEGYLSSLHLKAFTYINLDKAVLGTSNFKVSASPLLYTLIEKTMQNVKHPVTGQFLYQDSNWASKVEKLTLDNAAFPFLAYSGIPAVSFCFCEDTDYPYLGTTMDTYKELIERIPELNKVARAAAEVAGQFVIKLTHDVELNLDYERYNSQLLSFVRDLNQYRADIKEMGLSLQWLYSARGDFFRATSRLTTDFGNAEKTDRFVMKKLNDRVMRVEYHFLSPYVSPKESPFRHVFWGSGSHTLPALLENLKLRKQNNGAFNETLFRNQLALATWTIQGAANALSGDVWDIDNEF

hCD71:HSA [1] | Cyno apical domain:HSA [2] | RLU [3] [RLU] | RLU [4] [RLU] | Binder
134 | 150 | 4.74e+06 | 5.3e+06 | CD71-binding FN3 domain of SEQ ID NO: 144 (designed binder) MSLPAPKNLVVSRVTEDSARLSWTAPDAAFDSFEIGYFENLYLGEAIVLTVPGSERSYDLTSLKPGTEYWVQIGGVKGGNWSAPLSATFTT
342 | 455 | 3.77e+06 | 5e+06 | CD71-binding FN3 domain of SEQ ID NO: 149 (designed binder) MSLPAPKNLVVSRVTEDSARLSWTAPDAAFDSFDIGYFELRYYGEAIVLTVPGSERSYDLTGLKPGTEYWVSIGGVKGGTYSAPLSAIFTT
69 | 83 | 3.68e+06 | 4.43e+06 | CD71-binding FN3 domain of SEQ ID NO: 156 (designed binder) MSLPAPKNLVVSRVTEDSARLSWTAPDAAFDSFEIGYFEMSWTGEAIVLTVPGSERSYDLTGLKPGTEYVVFIGGVKGGNWSAPLSAIFTT
164 | 291 | 2.36e+06 | 4.21e+06 | CD71-binding FN3 domain of SEQ ID NO: 152 (designed binder) MSLPAPKNLVVSRVTEDSARLSWTAPDAAFDSFDIGYFEATYYGEAIVLTVPGSERSYDLTGLKPGTEYWVQIGGVKGGNWSAPLSAIFTT
112 | 128 | 4.34e+06 | 4.96e+06 | CD71-binding FN3 domain of SEQ ID NO: 146 (designed binder) MSLPAPKNLVVSRVTEDSARLSWTAPDAAFDSFDIGYFENTYEGEAIVLTVPGSERSYDLTGLKPGTEYVVWIGGVKGGSYSSPLSAIFTT
40 | 72 | 2.64e+06 | 4.77e+06 | CD71-binding FN3 domain of SEQ ID NO: 159 (designed binder) MSLPAPKNLVVSRVTEDSARLSWTAPDAAFDSFEIVYQENSAYGEAIVLTVPGSERSYDLTGLKPGTEYWVQIGGVKGGNWSAPLSAISTT
355 | 530 | 2.89e+06 | 4.32e+06 | CD71-binding FN3 domain of SEQ ID NO: 157 (designed binder) MSLPAPKNLVVSRVTEDSARLSWTAPDAAFDSFEIGYGEFTYYGEAIVLTVPGSERSYDLTGLKPGTEYWVQIGGVKGGNWSNPLSAIFTT
151 | 220 | 3.55e+06 | 5.19e+06 | CD71-binding FN3 domain of SEQ ID NO: 155 (designed binder) MSLPAPENLVVSRVTEDSARLSWTAPDAAFDSFEIGYFENLYLGEAIVLTVPGSERSYDLTGLKPGTEYWVQIGGVKGGVWSRPLSAIFTT
212 | 408 | 2.45e+06 | 4.72e+06 | CD71-binding FN3 domain of SEQ ID NO: 148 (designed binder) MSLPAPKNLVVSRVTEDSARLSWTAPDAAFDSFEIVYQENSAYGEAIVLTVPGSERSYDLTGLKPGTEYWVQIGGVKGGEWSAPLSAIFTT
22 | 28 | 4.04e+06 | 5.1e+06 | CD71-binding FN3 domain of SEQ ID NO: 151 (designed binder) MSLPAPKNLVVSRITEDSARLSWTAPDAAFDSFEIAYFETCRTGEAIVLTVPGSERSYDLTGLKPGTEYRVWIGGVKGGVWSRPLSAIVTT
98 | 118 | 3.49e+06 | 4.18e+06 | CD71-binding FN3 domain of SEQ ID NO: 150 (designed binder) MSLPAPKNLVVSRVTEDSARLSWTAPDAAFDSFDIGYFENSYAGEAIVLTVPGSERSYDLTGLKPGTEYYVSIAGVKGGRFSPPLSAIFTT
96 | 99 | 4.48e+06 | 4.63e+06 | CD71-binding FN3 domain of SEQ ID NO: 158 (designed binder) MSLPAPKNLVVSRVTEDSARLSWTAPDAAFDSFEIAYFERTWFGEAIVLTVPGSERSYDLTGLKPGTEYWVQIGGVKGGDWSKPLSAIFTT
